Test results as given in article PMC10942606.

Biological target: T1, SpPCNA (recombinant S. pombe PCNA) (S. pombe), Q03392
T1 chain: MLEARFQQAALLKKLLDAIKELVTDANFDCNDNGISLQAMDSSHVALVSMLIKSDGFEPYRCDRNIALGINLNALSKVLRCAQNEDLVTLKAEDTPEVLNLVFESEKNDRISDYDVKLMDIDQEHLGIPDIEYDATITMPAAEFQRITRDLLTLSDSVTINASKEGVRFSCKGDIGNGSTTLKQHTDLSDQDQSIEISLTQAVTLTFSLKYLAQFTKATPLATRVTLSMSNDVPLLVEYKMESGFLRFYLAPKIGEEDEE
Assay: ITC

QLKLNNFF (modifications not checked) [Pcf1_PIP peptide] gave a Kd of 7.1 µM, a dH of -2.9 kCal.M^–1 and a stoichiometry N of 0.97.

Work on KNTAQSKPQQKSIMSFFGKK (modifications not checked) [Cdc27_PIP peptide] yielded a Kd of 3.5 µM, a dH of -4.8 kCal.M^–1 and a stoichiometry N of 0.9.
